“And” between values parts separate entries of the source, which are not always exact repeats. Identical values can stand only once.
Settings: Escherichia coli, pH 7, Thermal, DSC, Na phosphate 100 mM, NaCl 200 mM, reversible: yes, whole UniProt chain shown

B1: Regulatory protein rop wild type, P03051 (protein)
chain: MTKQEKTALNMARFIRSQTLTLLEKLNELDADEQADICESLHDHADELYRSCLARFGDDGENL
- unfolding free energy (74.6 °C): 3.1 kcal/mol and 5.6 kcal/mol
- unfolding enthalpy (calorimetric): 114 kcal/mol and 83.1 kcal/mol and 94.3 kcal/mol
- unfolding enthalpy (van 't Hoff): 132 kcal/mol and 79.8 kcal/mol and 104 kcal/mol
